Test results from PMC7538161, “Breakage of the oligomeric CaMKII hub by the regulatory segment of the kinase” (eLife, 2020).
Several values for one entry are separate records, joined by “and”; a condition that tells them apart may be missing. Equal entries are not always repeated. Non-standard residues stand in square brackets, D forms with d. No end group written: not given here. pT = C[C@@H](OP(=O)(O)O)[C@H](N)C(=O)O

B1: human CaMKII-α hub domain (domain or fragment, UniProt Q9UQM7 345-475, looked up)
chain: VRKQEIIKVTEQLIEAISNGDFESYTKMCDPGMTAFEPEALGNLVEGLDFHRFYFENLWSRNSKPVHTTILNPHIHLMGDESACIAYIRITQYLDAGGIPRTAQSEETRVWHRRDGKWQIVHFHRSGAPSV
notes: Ca2+/calmodulin-dependent protein kinase II alpha (CaMKII-α), human, hub domain, residues 345-475 of Uniprot Q9UQM7; Forms dodecameric and tetradecameric assemblies; also called the hub; hub assembly; source: E. coli BL21, purified (Ni-NTA, PreScission cleavage, Ni-NTA flow-through, Superose 6 gel filtration); not shown: His6, N-terminal, cleaved; copies: 12 or 14

What was measured:
[1] = molecular target: B1; assay: native MS; hub 120 µM (subunits) mixed with 1 µM to 1 mM unphosphorylated peptide, ~400 mM ammonium acetate, incubated 5 min at room temperature; nanoelectrospray, sample cone voltage 50 V, source 80°C; conditions: both partners purified
[2] = molecular target: B1; assay: native MS; hub 120 µM (subunits) mixed with 1 to 100 µM phosphorylated peptide, ~400 mM ammonium acetate, injected at once without incubation; sample cone voltage 50 V; conditions: both partners purified
[3] = molecular target: the molecule itself; assay: native MS; hub alone, 120 µM subunit concentration in 400 mM ammonium acetate, 5 min at room temperature; nanoelectrospray, sample cone voltage 50 V, source 80°C

Row | binding result [1] | Binder | other results
1 | binds | RSTVASCMHRQETVDCLKKFNA (also called autonomy site peptide; source: bought: Elim Biopharm (lyophilized powder)) [Peptide G] | 
2 | binds | KRPPKLGQIGRSKRVVIEDDRIDDVLK (source: bought: Elim Biopharm (lyophilized powder)) [Peptide H, CaMKIINTide] | 
3 | binds | LKKFNARRKLKGAILTTMLA (source: bought: Elim Biopharm (lyophilized powder)) [Peptide A] | 
4 | binds | AILTTMLATRNFSGGKSGGNKK (source: bought: Elim Biopharm (lyophilized powder)) [Peptide B] | 
5 |  | AIL[pT]TMLATRNFSGGKSGGNKK (also: phosphothreonine at Thr 305, also called phosphorylated Peptide B; source: bought: Elim Biopharm (lyophilized powder)) [Peptide B^phos] | binding result [2]: binds
6 |  | LKKFNARRKLKGAIL[pT]TMLA (also: phosphothreonine at Thr 305, also called phosphorylated Peptide A; source: bought: Elim Biopharm (lyophilized powder)) [Peptide A^phos] | binding result [2]: binds
7 |  | B1 | stoichiometry N [3]: 12 and 14
